Data on 7 molecules can be found in publication PMC3459908 (2012).

The target in one test is BMP2 (Homo sapiens) (UniProt P12643). Put plainly: SPR. The note with it: cited from earlier work.
For test [1], the target named is T1, BMP4 (Homo sapiens, UniProt P12644).
T1 chain: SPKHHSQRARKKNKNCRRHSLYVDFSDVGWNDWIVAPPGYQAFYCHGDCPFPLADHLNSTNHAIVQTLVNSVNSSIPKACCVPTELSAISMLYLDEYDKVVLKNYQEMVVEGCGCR
Put plainly: SPR.

Test [2] deals with T2, BMP5 (Homo sapiens, UniProt P22003).
T2 chain: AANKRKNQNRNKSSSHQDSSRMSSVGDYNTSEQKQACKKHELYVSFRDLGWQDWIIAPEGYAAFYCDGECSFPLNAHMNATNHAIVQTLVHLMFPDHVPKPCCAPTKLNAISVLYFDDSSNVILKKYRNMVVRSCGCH
Nature of the test: SPR. (In general: In SPR one partner is held on a chip, and binding of the other changes the refractive index at the surface.)

Test [3] concerns the target T3, BMP2 (Homo sapiens, UniProt P12643).
T3 chain: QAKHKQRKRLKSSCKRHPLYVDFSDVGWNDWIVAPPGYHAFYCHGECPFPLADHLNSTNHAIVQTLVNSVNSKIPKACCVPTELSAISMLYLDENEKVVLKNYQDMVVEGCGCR
Nature of the test: SPR.

For test [4], the target named is T4, BMP6 (Homo sapiens, UniProt P22004).
T4 chain: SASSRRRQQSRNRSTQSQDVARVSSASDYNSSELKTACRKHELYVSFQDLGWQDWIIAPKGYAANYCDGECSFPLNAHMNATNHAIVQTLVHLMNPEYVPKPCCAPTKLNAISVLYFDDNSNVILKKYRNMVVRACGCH
Put plainly: SPR.

The target of test [5] is T5, BMP7 (Homo sapiens, UniProt P18075).
T5 chain: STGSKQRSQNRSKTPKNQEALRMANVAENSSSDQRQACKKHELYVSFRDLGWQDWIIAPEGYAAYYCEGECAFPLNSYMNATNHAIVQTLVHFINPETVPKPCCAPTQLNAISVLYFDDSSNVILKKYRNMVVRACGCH
Put plainly: SPR.

Test [6] has as its target T6, BMP7 (Homo sapiens (Human),Homo sapiens …, UniProt P18075,P18075).
T6 chain 1: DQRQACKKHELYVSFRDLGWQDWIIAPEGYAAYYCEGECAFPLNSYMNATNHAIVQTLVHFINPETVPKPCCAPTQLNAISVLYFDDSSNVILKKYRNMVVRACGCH
T6 chain 2: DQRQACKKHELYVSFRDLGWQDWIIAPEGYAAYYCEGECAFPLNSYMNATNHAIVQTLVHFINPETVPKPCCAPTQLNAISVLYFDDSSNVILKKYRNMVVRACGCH
Put plainly: SPR kinetic 1:1, BMP immobilised, full soluble RGM analyte.

For test [7], the target named is T7, BMP5 (Homo sapiens (Human),Homo sapiens …, UniProt P22003,P22003).
T7 chain 1: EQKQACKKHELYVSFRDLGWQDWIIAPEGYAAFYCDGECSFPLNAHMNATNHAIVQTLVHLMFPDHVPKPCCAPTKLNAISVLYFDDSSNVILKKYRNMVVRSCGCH
T7 chain 2: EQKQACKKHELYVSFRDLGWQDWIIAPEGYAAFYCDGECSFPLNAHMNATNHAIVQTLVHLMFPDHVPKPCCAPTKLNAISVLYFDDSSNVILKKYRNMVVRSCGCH
The test is described as above.

Test [8] has as its target T8, BMP4 (Homo sapiens (Human),Homo sapiens …, UniProt P12644,P12644).
T8 chain 1: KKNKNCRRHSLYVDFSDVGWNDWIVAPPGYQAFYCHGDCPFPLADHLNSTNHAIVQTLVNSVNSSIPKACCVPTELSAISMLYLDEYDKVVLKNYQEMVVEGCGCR
T8 chain 2: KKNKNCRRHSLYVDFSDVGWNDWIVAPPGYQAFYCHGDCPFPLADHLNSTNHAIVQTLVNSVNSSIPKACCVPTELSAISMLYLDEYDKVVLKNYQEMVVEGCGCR
The test is described as above.

Another test concerns the target T9, BMP9 (Homo sapiens (Human),Homo sapiens …, UniProt Q9UK05,Q9UK05).
T9 chain 1: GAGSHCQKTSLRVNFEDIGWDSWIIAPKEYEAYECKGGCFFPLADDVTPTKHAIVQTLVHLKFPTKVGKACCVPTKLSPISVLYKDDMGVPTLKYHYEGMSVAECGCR
T9 chain 2: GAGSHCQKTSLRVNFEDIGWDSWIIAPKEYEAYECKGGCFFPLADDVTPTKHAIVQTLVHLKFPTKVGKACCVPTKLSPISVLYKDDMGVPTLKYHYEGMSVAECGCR
The description is as above.

Test [9] addresses T10, BMP2 (Homo sapiens (Human),Homo sapiens …, UniProt P12643,P12643).
T10 chain 1: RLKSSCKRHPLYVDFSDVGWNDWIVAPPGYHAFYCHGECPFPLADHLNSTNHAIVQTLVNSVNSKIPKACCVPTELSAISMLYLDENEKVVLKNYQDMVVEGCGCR
T10 chain 2: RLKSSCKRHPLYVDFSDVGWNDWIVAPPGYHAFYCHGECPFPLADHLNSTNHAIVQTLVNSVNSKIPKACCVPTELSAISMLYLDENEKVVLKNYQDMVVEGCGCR
The description is as above.

For test [10], the target named is T11, BMP6 (Homo sapiens (Human),Homo sapiens …, UniProt P22004,P22004).
T11 chain 1: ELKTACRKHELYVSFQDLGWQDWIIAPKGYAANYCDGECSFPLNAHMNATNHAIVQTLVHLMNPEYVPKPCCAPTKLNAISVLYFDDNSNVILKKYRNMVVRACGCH
T11 chain 2: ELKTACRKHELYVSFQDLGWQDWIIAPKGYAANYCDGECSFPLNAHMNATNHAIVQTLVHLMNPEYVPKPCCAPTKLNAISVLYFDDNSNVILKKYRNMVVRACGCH
The test is described as above.

Usually Kd stands for the equilibrium constant for the complex coming apart. As to HJV (from UniProt Q6ZVN8), the dissociation constant Kd in the test with BMP2 (Homo sapiens) is 140 nM.

B1: HJV (protein)
chain: QCKILRCNAEYVSSTLSLRGGGSSGALRGGGGGGRGGGVGSGGLCRALRSYALCTRRTARTCRGDLAFHSAVHGIEDLMIQHNCSRQGPTAPPPPRGPALPGAGSGLPAPDPCDYEGRFSRLHGRPPGFLHCASFGDPHVRSFHHHFHTCRVQGAWPLLDNDFLFVQATSSPMALGANATATRKLTIIFKNMQECIDQKVYQAEVDNLPVAFEDGSINGGDRPGGSSLSIQTANPGNHVEIQAAYIGTTIIIRQTAGQLSFSIKVAEDVAMAFSAEQDLQLCVGGCPPSQRLSRSERNRRGAITIDTARRLCKEGLPVEDAYFHSCVFDVLISGDPNFTVAAQAALEDARAFLPDLEKLHLFPSD
As for B1, the Kd with BMP4 [1] came to 4.5 nM; with BMP5 [2], 17 nM; in the test with BMP2 [3], 9.4 nM; in the test with BMP6 [4], 8.1 nM; with BMP7 [5], 20 nM.

B2: RGMB (protein)
chain: QCRIQKCTTDFVSLTSHLNSAVDGFDSEFCKALRAYAGCTQRTSKACRGNLVYHSAVLGISDLMSQRNCSKDGPTSSTNP
On to B2, for which the Kd in the test with BMP7 [6] was 166 nM; with BMP5 [7] it was 33 nM; in the test with BMP4 [8] it was 2.6 nM; with BMP9 it was more than 30 nM; with BMP2 [9] it was 5.5 nM.

B3: RGMC (protein)
chain: QCKILRCNAEYVSSTLSLRGGGSSGALRGGGGGGRGGGVGSGGLCRALRSYALCTRRTARTCRGDLAFHSAVHGIEDLMIQHNCSRQGPTAPPPP
For the molecule B3, the Kd was 20 nM with BMP7 [6]; 17 nM in the test with BMP5 [7]; 4.5 nM with BMP4 [8]; more than 200 nM with BMP9; 8.1 nM with BMP6 [10]; 9.4 nM with BMP2 [9].

B4: RGMA (protein)
chain: PCKILKCNSEFWSATSGSHAPASDDTPEFCAALRSYALCTRRTARTCRGDLAYHSAVHGIEDLMSQHNCSKDGPTSQPRL
As to B4, the dissociation constant Kd with BMP9 is more than 100 nM.

B5: RGMB (protein)
chain: GDCQQPAQCRIQKCTTDFVSLTSHLNSAVDGFDSEFCKALRAYAGCTQRTSKACRGNLVYHSAVLGISDLMSQRNCSKDGPTSSTNPEVTHDPCNYHSHAGAREHRRGDQNPPSYLFCGLFGDPHLRTFKDNFQTCKVEGAWPLIDNNYLSVQVTNVPVVPGSSATATNKITIIFKAHHECTDQKVYQAVTDDLPAAFVDGTTSGGDSDAKSLRIVERESGHYVEMHARYIGTTVFVRQVGRYLTLAIRMPEDLAMSYEESQDLQLCVNGCPLSERIDDGQGQVSAILGHSLPRTSLVQAWPGYTLETANTQCHEKMPVKDIYFQSCVFDLLTTGDANFTAAAHSALEDVEALHPRKERWHIFPSSGN
B5 had a Kd with BMP6 [4] of 28 nM.

B6: RGMA (protein)
chain: PHLRTFTDRFQTCKVQGAWPLIDNNYLNVQVTNTPVLPGSAATATSKLTIIFKNFQECVDQKVYQAEMDELPAAFVDGSKNGGDKHGANSLKITEKVSGQHVEIQAKYIGTTIVVRQVGRYLTFAVRMPEEVVNAVEDWDSQGLYLCLRGCPLNQQIDFQAFHTNAEGTGARRLAAASPAPTAPETFPYETAVAKCKEKLPVEDLYYQACVFDLLTTGDVNFTLAAYYALEDVKMLHSNKDKLHLYERTRDLPGRA
As to B6, the Kd was 14 nM in the test with BMP4 [1]; 83 nM with BMP5 [2]; 22 nM with BMP2 [3]; 55 nM with BMP6 [4]; 63 nM with BMP7 [5].
